{"source": "paper PMC4725365", "key": {"[1]": {"molecular_target": "A1-Titin (HLA-A*0101 with the Titin peptide ), biotinylated", "assay": "SPR"}, "[2]": {"molecular_target": "A1-MAGE-A3 (HLA-A*0101 with the MAGE-A3 peptide ), biotinylated", "assay": "SPR"}, "[3]": {"molecular_target": "A1-MAGE-A3 (HLA-A*0101 with the MAGE-A3 peptide …), biotinylated", "assay": "SPR (single cycle kinetics)", "conditions": "25 °C; approximately 150 RUs of biotinylated pMHC immobilised onto a CM5 amine chip"}, "[4]": {"molecular_target": "A1-Titin (HLA-A*0101 with the Titin peptide …), biotinylated", "assay": "SPR (single cycle kinetics)", "conditions": "25 °C; approximately 150 RUs of biotinylated pMHC immobilised onto a CM5 amine chip"}}}
{"substance": "MAG-IC3 TCR mutant N97Q (β chain)", "values": [{"measurement": "Kd", "setting": "[1]", "result": 601, "unit": "nM"}]}
{"substance": "MAG-IC3 TCR mutant R31W (β chain)", "values": [{"measurement": "Kd", "setting": "[2]", "result": 6.2, "unit": "nM"}, {"measurement": "Kd", "setting": "[1]", "result": 100, "unit": "nM"}]}
{"substance": "MAG-IC3 TCR F51T", "values": [{"measurement": "Kd", "setting": "[3]", "result": 3.2, "unit": "nM"}, {"measurement": "other: t1/2", "setting": "[3]", "result": 66, "unit": "min"}]}
{"substance": "MAG-IC3 TCR N97Q", "values": [{"measurement": "Kd", "setting": "[3]", "result": 59, "unit": "nM"}]}
{"substance": "MAG-IC3 TCR F51W", "values": [{"measurement": "Kd", "setting": "[4]", "result": 172, "unit": "nM"}, {"measurement": "other: t1/2", "setting": "[4]", "result": 1.5, "unit": "min"}, {"measurement": "other: t1/2", "setting": "[3]", "result": 20, "unit": "min"}]}
{"substance": "MAG-IC3 TCR R31L", "values": [{"measurement": "Kd", "setting": "[4]", "result": 93, "unit": "nM"}, {"measurement": "Kd", "setting": "[3]", "result": 13.4, "unit": "nM"}]}
{"substance": "MAG-IC3 TCR mutant F51W (β chain)", "values": [{"measurement": "Kd", "setting": "[2]", "result": 8.4, "unit": "nM"}]}
{"substance": "MAG-IC3 TCR mutant N97E (β chain)", "values": [{"measurement": "Kd", "setting": "[2]", "result": 35, "unit": "nM"}]}
{"substance": "MAG-IC3 TCR mutant F51T (β chain)", "values": [{"measurement": "Kd", "setting": "[1]", "result": 97.6, "unit": "nM"}]}
{"substance": "MAG-IC3 TCR mutant N97D (β chain)", "values": [{"measurement": "Kd", "setting": "[2]", "result": 99.3, "unit": "nM"}]}
{"substance": "MAG-IC3 TCR N97E", "values": [{"measurement": "Kd", "setting": "[4]", "result": 743, "unit": "nM"}, {"measurement": "other: t1/2", "setting": "[3]", "result": 14, "unit": "min"}]}
{"substance": "MAG-IC3 TCR N97D", "values": [{"measurement": "Kd", "setting": "[4]", "result": 916, "unit": "nM"}]}
